Test results published in US20160223562A1, “Method for Determining the Concentration of a Peptide” (JPT Peptide Technologies GmbH, priority 2010, published 2016).
Square brackets hold non-standard residues; d marks the D form. Peptide text beside a SMILES is read from it. Tyr(3-NO2) = N[C@@H](Cc1ccc(O)c([N+](=O)[O-])c1)C(=O)O

Assays:
[1] = target: T1, Trypsin (Sus scrofa, UniProt P00761); test: Trypsin cleavage of N-terminal quantification tag Ac-nitroTyr-SGK- from peptides, LC-MS with UV detection at 350 nm; assay type: biochemical; settings: for Kusebauch 24 h, RT: Percent Cleavage of Tag [by UV350 - Peptide-Tag vs. Tag]: trypsin protocol of example 9, 24 h
T1 construct: purchased Promega Corporation V511
T1 sequence (P00761 9-231): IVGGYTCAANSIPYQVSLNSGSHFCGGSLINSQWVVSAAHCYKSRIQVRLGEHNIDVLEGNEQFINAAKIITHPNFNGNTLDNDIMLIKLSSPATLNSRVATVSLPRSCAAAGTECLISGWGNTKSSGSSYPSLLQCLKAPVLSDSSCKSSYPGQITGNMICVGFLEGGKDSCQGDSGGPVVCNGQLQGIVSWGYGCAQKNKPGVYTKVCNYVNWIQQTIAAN

[2] = target: T1, Trypsin; test: Trypsin cleavage of C-terminal quantification tag -SA-nitroTyr-G from peptides, LC-MS with UV detection at 350 nm; assay type: biochemical; settings: after reduction and alkylation, trypsin enzyme/substrate 1:50 over night at RT
Procedure: 23 peptides carrying the C-terminal quantification-tag-SA-nitroTyr-G-OH (SEQ ID NO:2) were synthesized by Fmoc-based solid phase peptide synthesis and purified by HPLC. Each peptide was subjected to the following trypsin cleavage protocol:
Trypsin Activation: Trypsin (20 μg, sequencing grade modified trypsin, Promega Corporation, Madison, Wis., USA, catalogue no. V511, specific activity 16.965 u/mg) was dissolved in Trypsin resuspension buffer (200 μL, Promega, catalogue no. V542A, ingredient 50 mM acetic acid) and incubated for 15 min at 37° C.
Reduction and alkylation: The peptide (approx. 0.05 mg) was dissolved in 1 M urea and 100 mM fresh ammonium hydrogen carbonate (300 μL). TCEP (Tris(2-carboxyethyl) phosphine hydrochloride, 0.2 M, 7.5 μL, final concentration 5 mM) was added and the solution incubated at 37° C. for 1 h. After addition of iodoacetamide (0.5 M, 6.0 μL, final concentration 10 mM) the solution was incubated at RT in the dark for another 30 min. Digestion: The sample was digested with activated Trypsin solution (10 μL per well, 1.0 μg, resulting enzyme/substrate ratio 1:50) over night at RT. To stop the digestion, HCl (2 M, 8 μL final concentration 50 mM) and TFA (3.2 μL, final concentration 1%, pH<2) were added. Finally, the sample was analyzed by LC-MS at 350 nm.

cleavage efficiency in words ([1]; trypsin) | Compound | Kusebauch 24 h, RT: Percent Cleavage of Tag [by UV350 - Peptide-Tag vs. Tag] [1] [%] | Percent Cleavage of Tag [by UV at 350 nm] [2] [%]
not efficiently cleaved | CC(=O)N[C@@H](Cc1ccc(O)c([N+](=O)[O-])c1)C(=O)N[C@@H](CO)C(=O)NCC(=O)N[C@@H](CCCCN)C(=O)N[C@@H](CC(=O)O)C(=O)N[C@H](C(=O)N[C@@H](C)C(=O)N[C@@H](CC(C)C)C(=O)N[C@@H](CO)C(=O)N[C@@H](CC(C)C)C(=O)N[C@@H](CC(=O)O)C(=O)N[C@@H](CC(=O)O)C(=O)N[C@H](C(=O)N[C@@H](CCCCN)C(=O)O)C(C)C)C(C)C [Peptide 23, Ac-nitroTyr-SGKDVALSLDDV-K-OH] (Ac-[Tyr(3-NO2)]SGKDVALSLDDVK-OH) | 59.2 | 100
– | Ac-nitroTyr-SGKATHYFIDLN-K-OH (Ac-[Tyr(3-NO2)]SGKATHYFIDLNK-OH; SMILES CC[C@H](C)[C@H](NC(=O)[C@H](Cc1ccccc1)NC(=O)[C@H](Cc1ccc(O)cc1)NC(=O)[C@H](Cc1c[nH]cn1)NC(=O)[C@@H](NC(=O)[C@H](C)NC(=O)[C@H](CCCCN)NC(=O)CNC(=O)[C@H](CO)NC(=O)[C@H](Cc1ccc(O)c([N+](=O)[O-])c1)NC(C)=O)[C@@H](C)O)C(=O)N[C@@H](CC(=O)O)C(=O)N[C@@H](CC(C)C)C(=O)N[C@@H](CC(N)=O)C(=O)N[C@@H](CCCCN)C(=O)O) [Peptide 1] | 100.0 | 100
– | Ac-nitroTyr-SGKHTHYFIDLN-K-OH (Ac-[Tyr(3-NO2)]SGKHTHYFIDLNK-OH; SMILES CC[C@H](C)[C@H](NC(=O)[C@H](Cc1ccccc1)NC(=O)[C@H](Cc1ccc(O)cc1)NC(=O)[C@H](Cc1c[nH]cn1)NC(=O)[C@@H](NC(=O)[C@H](Cc1c[nH]cn1)NC(=O)[C@H](CCCCN)NC(=O)CNC(=O)[C@H](CO)NC(=O)[C@H](Cc1ccc(O)c([N+](=O)[O-])c1)NC(C)=O)[C@@H](C)O)C(=O)N[C@@H](CC(=O)O)C(=O)N[C@@H](CC(C)C)C(=O)N[C@@H](CC(N)=O)C(=O)N[C@@H](CCCCN)C(=O)O) [Peptide 7] | 100.0 | 100
